Results as given in patent publication US7109167.

How the values were obtained:
[1] = target: endothelial cell receptor for TKPPR on human aortic endothelial cells (HAEC); assay: fluorescent beads on confluent HAEC, static, Experiment 1, image analysis
[2] = target: endothelial cell receptor for TKPPR on human aortic endothelial cells (HAEC); assay: competition on HAEC: VEGF121 400 ng/ml against 2% BRU-114 bubbles
[3] = target: endothelial cell receptor for TKPPR on human aortic endothelial cells (HAEC); assay: competition on HAEC: VEGF121 100 ng/ml against 2% BRU-114 bubbles
[4] = target: endothelial cell receptor for TKPPR on human aortic endothelial cells (HAEC); assay: competition on HAEC: VEGF121 200 ng/ml against 2% BRU-114 bubbles
[5] = target: endothelial cell receptor for TKPPR on human aortic endothelial cells (HAEC); assay: competition on HAEC: VEGF165 75 ng/ml against 5% BRU-114 bubbles
[6] = target: endothelial cell receptor for TKPPR on human aortic endothelial cells (HAEC); assay: competition on HAEC: VEGF165 25 ng/ml against 5% BRU-114 bubbles
[7] = target: endothelial cell receptor for TKPPR on human aortic endothelial cells (HAEC); assay: competition on HAEC: VEGF165 100 ng/ml against 2% BRU-114 bubbles
[8] = target: endothelial cell receptor for TKPPR on human aortic endothelial cells (HAEC); assay: competition on HAEC: VEGF165 200 ng/ml against 2% BRU-114 bubbles
[9] = target: endothelial cell receptor for TKPPR on human aortic endothelial cells (HAEC); assay: competition on HAEC: VEGF165 6.25 ng/ml against 5% BRU-114 bubbles
[10] = target: endothelial cell receptor for TKPPR on human aortic endothelial cells (HAEC); assay: competition on HAEC: VEGF165 against 5% BRU-114 bubbles
[11] = target: endothelial cell receptor for TKPPR on human aortic endothelial cells (HAEC); assay: competition on HAEC: VEGF165 25 ng/ml against 2% BRU-114 bubbles
[12] = target: endothelial cell receptor for TKPPR on human aortic endothelial cells (HAEC); assay: competition on HAEC: VEGF165 50 ng/ml against 5% BRU-114 bubbles
[13] = target: endothelial cell receptor for TKPPR on human aortic endothelial cells (HAEC); assay: competition on HAEC: VEGF165 12.5 ng/ml against 5% BRU-114 bubbles
[14] = target: endothelial cell receptor for TKPPR on human aortic endothelial cells (HAEC); assay: competition on HAEC: KDR/Fc 250 ng/ml against 5% BRU-114 bubbles
[15] = target: endothelial cell receptor for TKPPR on human aortic endothelial cells (HAEC); assay: competition on HAEC: KDR/Fc 2500 ng/ml against 5% BRU-114 bubbles
[16] = target: endothelial cell receptor for TKPPR on human aortic endothelial cells (HAEC); assay: competition on HAEC: KDR/Fc 500 ng/ml against 5% BRU-114 bubbles
[17] = target: endothelial cell receptor for TKPPR on human aortic endothelial cells (HAEC); assay: competition on HAEC: KDR/Fc 1000 ng/ml against 5% BRU-114 bubbles
[18] = target: endothelial cell receptor for TKPPR on human aortic endothelial cells (HAEC); assay: competition on HAEC: KDR/Fc 125 ng/ml against 5% BRU-114 bubbles

Sequence of soluble human KDR/Fc chimera (R&D Systems) (P35968 20-764, change not shown): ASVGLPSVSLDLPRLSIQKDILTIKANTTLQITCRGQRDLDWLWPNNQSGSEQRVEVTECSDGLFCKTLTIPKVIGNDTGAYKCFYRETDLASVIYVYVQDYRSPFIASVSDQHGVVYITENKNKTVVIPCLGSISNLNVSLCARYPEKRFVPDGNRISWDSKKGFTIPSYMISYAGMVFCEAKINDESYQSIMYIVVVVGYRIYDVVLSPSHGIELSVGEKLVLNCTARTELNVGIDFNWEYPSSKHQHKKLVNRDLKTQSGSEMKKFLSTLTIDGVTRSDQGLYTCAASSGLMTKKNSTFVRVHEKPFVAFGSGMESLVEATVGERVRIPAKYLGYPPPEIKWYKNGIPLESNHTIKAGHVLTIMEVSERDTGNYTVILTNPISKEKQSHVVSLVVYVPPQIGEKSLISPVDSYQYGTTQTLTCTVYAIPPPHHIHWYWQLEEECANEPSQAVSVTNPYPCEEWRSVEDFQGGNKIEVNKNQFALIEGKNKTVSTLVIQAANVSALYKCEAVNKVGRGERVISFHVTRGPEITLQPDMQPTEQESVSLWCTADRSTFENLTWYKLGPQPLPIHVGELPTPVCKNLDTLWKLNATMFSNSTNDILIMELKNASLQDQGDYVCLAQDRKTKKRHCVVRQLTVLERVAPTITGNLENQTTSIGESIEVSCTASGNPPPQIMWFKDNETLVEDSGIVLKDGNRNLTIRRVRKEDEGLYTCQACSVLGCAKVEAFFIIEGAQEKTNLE

**Q.** Which Integrated density of bound beads (arbitrary units) [1] does the source give for “BSA-conjugated fluorescent microspheres (from UniProt P02769 25-607)” here?
**A.** The Integrated density of bound beads (arbitrary units) was 1.61.

**Q.** How did the Bubbles Bound [2] turn out when “VEGF121 (from UniProt P15692 27-147) (ligand)” was run?
**A.** The Bubbles Bound was 778 bubbles.

**Q.** What about the Bubbles Bound [3] of the same substance?
**A.** Its Bubbles Bound is 878 bubbles.

**Q.** And the Bubbles Bound [4]?
**A.** Its Bubbles Bound is 849 bubbles.

**Q.** For “VEGF165 (from UniProt P15692 27-191) (ligand)”, which Bubbles Bound [5] is on record?
**A.** Its Bubbles Bound is 190 bubbles.

**Q.** What about the Bubbles Bound [6] of the same substance?
**A.** The Bubbles Bound was 342 bubbles.

**Q.** And the Bubbles Bound [7]?
**A.** Its Bubbles Bound is 94 bubbles.

**Q.** And the Bubbles Bound [8]?
**A.** The Bubbles Bound was 70 bubbles.

**Q.** And the Bubbles Bound [9]?
**A.** Its Bubbles Bound is 1180 bubbles.

**Q.** What about the IC50 [10] of the same substance?
**A.** Its IC50 is 0.0125 µg/mL.

**Q.** What about the Bubbles Bound [11] of the same substance?
**A.** The Bubbles Bound was 144 bubbles.

**Q.** What about the Bubbles Bound [12] of the same substance?
**A.** Its Bubbles Bound is 226 bubbles.

**Q.** And the Bubbles Bound [13]?
**A.** Its Bubbles Bound is 599 bubbles.

**Q.** Which results are given for “soluble human KDR/Fc chimera (R&D Systems) (from UniProt P35968 20-764) (Fc fusion)”?
**A.** Bubbles Bound [14]: 786 bubbles; Bubbles Bound [15]: 84 bubbles; Bubbles Bound [16]: 342 bubbles; Bubbles Bound [17]: 75 bubbles; Bubbles Bound [18]: 1030 bubbles
